Article PMC5687031 (Molecular Biology of the Cell, 2017)

How the values were obtained:
Spc110^891-944 [1] = biological target: T1, Spc110^891-944 (S. cerevisiae, UniProt P32380 891-944); assay: crystal structure
T1 sequence (looked up): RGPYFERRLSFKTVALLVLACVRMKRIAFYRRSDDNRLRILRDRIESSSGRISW

crystal structure = biological target: the molecule itself; assay: crystal structure
Spc110^891-944 [2] = biological target: T1, Spc110^891-944; assay: SAXS

- stoichiometry N (Spc110^891-944 [1]): 1 calmodulin per Spc110 CBD (2:2)
- stoichiometry N (Spc110^891-944 [2]): 1 calmodulin per Spc110^891-944
B1: Kluyveromyces lactis calmodulin (natural protein)
chain: not shown
modifications: disulfide between Cys79 of the two calmodulins in the crystal
- stoichiometry N (crystal structure): 2 calmodulin chains
